What was measured:
[1] = molecular target: His-tagged human B7-H3 (human) (UniProt Q5ZPR3); test: ELISA, coated His-tagged antigen, scFv-Fc 1 ug/ml
[2] = molecular target: His-tagged human B7-H3 (human) (UniProt Q5ZPR3); test: ELISA OD450 on hu B7-H3 over OD450 on mu B7-H3
[3] = molecular target: His-tagged mouse B7-H3 (mouse) (UniProt Q8VE98); test: ELISA, coated His-tagged antigen, scFv-Fc 1 ug/ml
Chain of His-tagged mouse B7-H3 (mouse) (Q8VE98 29-244 limits assumed): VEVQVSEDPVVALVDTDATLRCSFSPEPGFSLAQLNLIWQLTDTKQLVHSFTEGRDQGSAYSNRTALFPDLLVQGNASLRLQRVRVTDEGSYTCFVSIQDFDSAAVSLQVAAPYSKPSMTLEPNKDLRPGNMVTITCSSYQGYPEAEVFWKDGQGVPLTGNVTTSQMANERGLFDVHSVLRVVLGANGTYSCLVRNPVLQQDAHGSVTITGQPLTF

Chain of His-tagged human B7-H3 (human) (Q5ZPR3 other isoform, or with tags, fused parts or gaps limits assumed): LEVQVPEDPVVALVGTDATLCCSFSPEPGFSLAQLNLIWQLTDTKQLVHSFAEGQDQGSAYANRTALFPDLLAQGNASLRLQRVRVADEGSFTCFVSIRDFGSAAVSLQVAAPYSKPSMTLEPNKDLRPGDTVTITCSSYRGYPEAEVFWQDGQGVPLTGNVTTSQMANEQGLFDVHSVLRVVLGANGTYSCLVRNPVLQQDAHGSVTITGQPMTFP

B1: 40579p1.H11 (scFv, V domains shown)
VH: EVQLLESGGGLVQPGGSLRLSCAASGFTFDDYGMSWVRQAPGKGLEWVSAIRSKASSYATYYADSVKGRFTVSRDNSENTLYLQMNSLRAEDTAVYYCAKHRSNYYFMDVWGQGTTVTVSS
VL: EIVLTQSPGTLSLSPGERATLSCRASQSVGSDLAWYQQRPGQAPRLLIYAASSRATDIPDRFSGSGSGTDFTLTISSLQSEDFAVYYCQQYYSWPPLTFGGGTKVEIK
- ELISA OD450 @ 1 ug/ml [1]: 0.077 OD450
- hu:mu ratio [2]: 1.51

B2: 40633p1.2.C11 (scFv, V domains shown)
VH: EVQLLESGGGLVQPGGSLRLSCAASGFTFSSYWMSWVRQAPGKGLEWVAGINRNGGSTYYADSVKGRFTISRDNSENTLYLQVNSLRAEDTAVYYCARWNDYDIMDVWGQGTTVTVSS
VL: QSVLTQPSSASGTPGQRVTISCSGSSSNVGRRAVNWYQQLPGTAPKLLISNSQRPSGVPDRFSGSKSGTSASLAISGLQSEDEADYYCATWDASLNSWVFGGGTKLTVL
- ELISA OD450 @ 1 ug/ml [1]: 0.049 OD450
- ELISA OD450 @ 1 ug/ml [3]: 0.045 OD450
- hu:mu ratio [2]: 1.09
